How the values were obtained:
AY(AcK)EV = molecular target: T1, AY(AcK)EV
T1 chain: AYKEV

AcGG(AcK)AP = molecular target: T2, AcGG(AcK)AP
T2 chain: GGKAP

AcGG(AcK)APR = molecular target: T3, AcGG(AcK)APR
T3 chain: GGKAPR

AcGG(AcK)APRK = molecular target: T4, AcGG(AcK)APRK
T4 chain: GGKAPRK

AcGG(AcK)APRKQ = molecular target: T5, AcGG(AcK)APRKQ
T5 chain: GGKAPRKQ

AcKSTGG(AcK)AP = molecular target: T6, AcKSTGG(AcK)AP
T6 chain: KSTGGKAP

AcSTGG(AcK)APR = molecular target: T7, AcSTGG(AcK)APR
T7 chain: STGGKAPR

AcSTGG(AcK)AP = molecular target: T8, AcSTGG(AcK)AP
T8 chain: STGGKAP

AcTGG(AcK)APRK = molecular target: T9, AcTGG(AcK)APRK
T9 chain: TGGKAPRK

AcTGG(AcK)APR = molecular target: T10, AcTGG(AcK)APR
T10 chain: TGGKAPR

AcTGG(AcK)AP = molecular target: T11, AcTGG(AcK)AP
T11 chain: TGGKAP

[1] = molecular target: T12, Ala-Val-AcLys-Phe-Nle (SIRT1 library hit, on bead)
T12 chain: AVKFMXXRM

[2] = molecular target: T13, Asn-His-AcLys-Ile-Ile (SIRT1 library hit, on bead)
T13 chain: NHKIIXXRM

[3] = molecular target: T14, Asn-His-AcLys-Leu-Leu (SIRT1 library hit, on bead)
T14 chain: NHKLLXXRM

[4] = molecular target: T15, Asp-Ser-AcLys-Gly-Ala (SIRT1 library hit, on bead)
T15 chain: DSKGAXXRM

[5] = molecular target: T16, Asp-Val-AcLys-Nle-His (SIRT1 library hit, on bead)
T16 chain: DVKMHXXRM

EL(AcK)AS = molecular target: T17, EL(AcK)AS
T17 chain: ELKAS

[6] = molecular target: T18, Gln-Pro-AcLys-Gln-Ile (SIRT1 library hit, on bead)
T18 chain: QPKQIXXRM

[7] = molecular target: T19, Gly-Thr-AcLys-Thr-Gly (SIRT1 library hit, on bead)
T19 chain: GTKTGXXRM

[8] = molecular target: T20, Gly-Tyr-AcLys-Pro-Thr (SIRT1 library hit, on bead)
T20 chain: GYKPTXXRM

HK(AcK)LM = molecular target: T21, HK(AcK)LM
T21 chain: HKKLM

[9] = molecular target: T22, His-Me2Arg-AcLys-Nle-Pro (SIRT1 library hit, on bead)
T22 chain: HRKMPXXRM

[10] = molecular target: T23, His-Trp-AcLys-Thr-His (SIRT1 library hit, on bead)
T23 chain: HWKTHXXRM

[11] = molecular target: T24, Ile-Phe-AcLys-Thr-Phe (SIRT1 library hit, on bead)
T24 chain: IFKTFXXRM

[12] = molecular target: T25, Ile-Tyr-AcLys-Asn-Asp (SIRT1 library hit, on bead)
T25 chain: IYKNDXXRM

LNle(AcK)VG = molecular target: T26, LNle(AcK)VG
T26 chain: LLKVG

[13] = molecular target: T27, Leu-Asn-AcLys-Asp-Gln (SIRT1 library hit, on bead)
T27 chain: LNKDQXXRM

[14] = molecular target: T28, Me2Arg-Ala-AcLys-Nle-Asp (SIRT1 library hit, on bead)
T28 chain: RAKMDXXRM

[15] = molecular target: T29, Me2Arg-Phe-AcLys-Pro-Glu (SIRT1 library hit, on bead)
T29 chain: RFKPEXXRM

B1: human NAD+-dependent deacetylase SIRT1 (protein)
chain: MADEAALALQPGGSPSAAGADREAASSPAGEPLRKRPRRDGPGLERSPGEPGGAAPEREVPAAARGCPGAAAAALWREAEAEAAAAGGEQEAQATAAAGEGDNGPGLQGPSREPPLADNLYDEDDDDEGEEEEEAAAAAIGYRDNLLFGDEIITNGFHSCESDEEDRASHASSSDWTPRPRIGPYTFVQQHLMIGTDPRTILKDLLPETIPPPELDDMTLWQIVINILSEPPKRKKRKDINTIEDAVKLLQECKKIIVLTGAGVSVSCGIPDFRSRDGIYARLAVDFPDLPDPQAMFDIEYFRKDPRPFFKFAKEIYPGQFQPSLCHKFIALSDKEGKLLRNYTQNIDTLEQVAGIQRIIQCHGSFATASCLICKYKVDCEAVRGDIFNQVVPRCPRCPADEPLAIMKPEIVFFGENLPEQFHRAMKYDKDEVDLLIVIGSSLKVRPVALIPSSIPHEVPQILINREPLPHLHFDVELLGDCDVIINELCHRLGGEYAKLCCNPVKLSEITEKPPRTQKELAYLSELPPTPLHVSEDSSSPERTSPPDSSVIVTLLDQAAKSNDDLDVSESKGCMEEKPQEVQTSRNVESIAEQMENPDLKNVGSSTGEKNERTSVAGTVRKCWPNRVAKEQISRRLDGNQYLFLPPNRYIFHGAEVYSDSEDDVLSSSSCGSNSDSGTCQSPSLEEPMEDESEIEEFYNGLEDEPDVPERAGGAGFGTDGDDQEAINEAISVKQEVTDMNYPSNKS
- kcat/Km (AY(AcK)EV): 5320 M⁻¹ s⁻¹
- Relative kcat/Km (relative to AcTGG(AcK)APRK = 1) (AcGG(AcK)AP): 1.72
- Relative kcat/Km (relative to AcTGG(AcK)APRK = 1) (AcGG(AcK)APR): 0.68
- Relative kcat/Km (relative to AcTGG(AcK)APRK = 1) (AcGG(AcK)APRK): 1.01
- Relative kcat/Km (relative to AcTGG(AcK)APRK = 1) (AcGG(AcK)APRKQ): 0.8
- Relative kcat/Km (relative to AcTGG(AcK)APRK = 1) (AcKSTGG(AcK)AP): 0.71
- Relative kcat/Km (relative to AcTGG(AcK)APRK = 1) (AcSTGG(AcK)APR): 0.67
- Relative kcat/Km (relative to AcTGG(AcK)APRK = 1) (AcSTGG(AcK)AP): 1.61
- Relative kcat/Km (relative to AcTGG(AcK)APRK = 1) (AcTGG(AcK)APRK): 1
- Relative kcat/Km (relative to AcTGG(AcK)APRK = 1) (AcTGG(AcK)APR): 0.64
- Relative kcat/Km (relative to AcTGG(AcK)APRK = 1) (AcTGG(AcK)AP): 0.54
- on-bead deacetylation, biotin and streptavidin quantum dot fluorescence, among the 45 brightest beads [1]: hits from the SIRT1 combinatorial library screen
- on-bead deacetylation, biotin and streptavidin quantum dot fluorescence, among the 45 brightest beads [2]: hits from the SIRT1 combinatorial library screen
- on-bead deacetylation, biotin and streptavidin quantum dot fluorescence, among the 45 brightest beads [3]: hits from the SIRT1 combinatorial library screen
- on-bead deacetylation, biotin and streptavidin quantum dot fluorescence, among the 45 brightest beads [4]: hits from the SIRT1 combinatorial library screen
- on-bead deacetylation, biotin and streptavidin quantum dot fluorescence, among the 45 brightest beads [5]: hits from the SIRT1 combinatorial library screen
- kcat/Km (EL(AcK)AS): 0.00139 M⁻¹ s⁻¹
- on-bead deacetylation, biotin and streptavidin quantum dot fluorescence, among the 45 brightest beads [6]: hits from the SIRT1 combinatorial library screen
- on-bead deacetylation, biotin and streptavidin quantum dot fluorescence, among the 45 brightest beads [7]: hits from the SIRT1 combinatorial library screen
- on-bead deacetylation, biotin and streptavidin quantum dot fluorescence, among the 45 brightest beads [8]: hits from the SIRT1 combinatorial library screen
- kcat/Km (HK(AcK)LM): 3110 M⁻¹ s⁻¹
- on-bead deacetylation, biotin and streptavidin quantum dot fluorescence, among the 45 brightest beads [9]: hits from the SIRT1 combinatorial library screen
- on-bead deacetylation, biotin and streptavidin quantum dot fluorescence, among the 45 brightest beads [10]: hits from the SIRT1 combinatorial library screen
- on-bead deacetylation, biotin and streptavidin quantum dot fluorescence, among the 45 brightest beads [11]: hits from the SIRT1 combinatorial library screen
- on-bead deacetylation, biotin and streptavidin quantum dot fluorescence, among the 45 brightest beads [12]: hits from the SIRT1 combinatorial library screen
- kcat/Km (LNle(AcK)VG): 0.00161 M⁻¹ s⁻¹
- on-bead deacetylation, biotin and streptavidin quantum dot fluorescence, among the 45 brightest beads [13]: hits from the SIRT1 combinatorial library screen
- on-bead deacetylation, biotin and streptavidin quantum dot fluorescence, among the 45 brightest beads [14]: hits from the SIRT1 combinatorial library screen
- on-bead deacetylation, biotin and streptavidin quantum dot fluorescence, among the 45 brightest beads [15]: hits from the SIRT1 combinatorial library screen

From US20070105152
